The values that follow come from patent publication US20160138094, “Direct, Programmable Detection of Epigenetic DNA Cytosine Modifications using TAL Effectors” (UNIVERSITÄt KONSTANZ, published 2016).

Data set [1] addresses T1, TALE_97 (HD at repeat 5 opposite C6) (Xanthomonas axonopodis pv. citri …, UniProt B2SU53). In words: EMSA; Tris, NaCl, MgCl2, salmon sperm DNA, room temperature. The conditions noted are these: tags: N-terminal thioredoxin and S-tag, C-terminal His6; label: 5'-32P on reverse strand. An excerpt:
Oligonucleotides 97_C2/5/6/11/12/14 mC_rev (SEQ ID NO: 5) and 97_T3/4/8/9/10/16 mC_rev (SEQ ID NO: 8) were 5′-³²P-end labeled using γ-³²P-ATP and T4 polynucleotide kinase (Fermentas) and purified using a G-25 gel filtration column (GE Healthcare). Oligonucleotides were hybridized pairwise (97/97_C2/5/6/11/12/14 mC_rev (SEQ ID NO: 3/SEQ ID NO: 5); 97_C2/5/6/11/12/14 mC/97_C2/5/6/11/12/14 mC_rev (SEQ ID NO: 4/SEQ ID NO: 5); 97_T3/4/8/9/10/16 C/97_T3/4/8/9/10/16 mC_rev (SEQ ID NO: 6/SEQ ID NO: 8); 97_T3/4/8/9/10/16 mC/97_T3/4/8/9/10/16 mC_rev (SEQ ID NO: 7/SEQ ID NO: 8)) at a concentration of 12.5 nM, respectively, by incubating at 95° C. for 5 min and subsequently at room temperature for 30 min in Hybridization buffer (40 mM Tris-HCl (pH=8.0), 100 mM NaCl, 10 mM MgCl₂, 100 ng/μl salmon sperm DNA (Ambion), 0.2 mg/ml BSA, 10% glycerol). For TALE-binding, to 6 μL of the hybridized DNA duplexes, 6 μL of TALE storage buffer (20 mM Tris-HCl pH=7.5, 200 mM NaCl, 10% Glycerol, 1 mM DTT) with varying concentrations of TALE proteins were added and mixtures were incubated at room temperature for 30 min. Mixtures were loaded onto an analytical, non-denaturing PAGE-gel (0.5 mm, 50 cm length) that was run in 0.25×TB buffer at 12 W and room temperature. Gel was dried and data recorded on a phosphorimager.
On the technique in general: In EMSA bound probe runs differently from free probe, usually more slowly.

Data set [2] has as its target T1, TALE_97 (HD at repeat 5 opposite C6). Put plainly: inhibition; inhibition of Klenow exo- primer extension, MgCl2, room temperature. The settings on record: tags: N-terminal thioredoxin and S-tag, C-terminal His6; label: 5'-32P on primer; 5' overhang template with primer duplex at template 3' end. The protocol:
Templates as shown in FIG. 2 (SEQ ID NOs: 9 to 14) and primer p97_rev (SEQ ID NO: 15; 5′-³²P-end labeled as above) were diluted from 5× stocks (500 nM and 166.5 nM, respectively) into 6 μL Hybridization buffer (40 mM Tris-HCl (pH 8.0), 100 mM NaCl, 10 mM MgCl₂, 0.2 mg/ml BSA, 10% glycerol) to final concentrations of 100 nM and 33.3 nM and hybridized by incubating at 95° C. for 5 min and subsequently at room temperature for 30 min. TALE proteins with various RVDs at position 5 were added in 6 μL TALE storage buffer (200 mM NaCl, 20 mM Tris-HCl (pH 7.5), 1 mM DTT, 10% glycerol) at varying concentrations and mixtures were incubated at room temperature for 30 min. 12 μL of a mixture of 25 mU Klenow Fragment of E. coli DNA polymerase I (3′-5′-exo⁻, New England Biolabs) and 200 μM of each dNTP in Binding buffer (30 mM Tris-HCl (pH 8.0), 150 mM NaCl, 5 mM MgCl₂, 0.1 mg/ml BSA, 0.5 mM DTT, 7.5% glycerol) were added, resulting in final concentrations of 8.325 nM and 25 nM for primer and template, respectively. These mixtures were incubated at room temperature for additional 15 min. 12 μL of PAGE loading buffer (80% formamide, 2 mM EDTA) were added, the mixtures were incubated at 95° C. for 5 min and cooled to 4° C. […] Gel was dried and data recorded on a phosphorimager. […]

B1: 97 / 97_C2/5/6/11/12/14mC_rev duplex (dsDNA)
DNA 1: AGACGGCATACGATCTTCCGTTTCCACATCCACCACATCCCAACAGAGCAGCGGGAGCAGCAGTAAAGATCGGAAGAGC
DNA 2: GCTCTTCCGATCTTTACTGCTGCTCCCGCTGCTCTGTTGGGATGTGGTGGATGTGGAAACGGAAGATCGTATGCCGTCT
In the case of B1, the binding result in data set [1] is given as “binds”.

B2: t97 template / p97_rev primer (dsDNA)
DNA 1: TGGATTCCCACTCTTCAGCCCCAGCGTTACAGCATCTTCAGTGGCTTCTTCCACCGTGAGCTCTTCCGTTTCCACATCC
DNA 2: GGATGTGGAAACGGAAGA
B2 displayed an IC50 in data set [2] of 106 nM.

By IC50 is commonly meant the concentration needed to halve the response being measured. A high value points to a need for much substance.
